Numbered stars: 1 amine (or outer) side, 2 acyl side, 3 side chain; on linkers, the order of the positions; unused ones are H or OH. Bridge positions count the residues as written; N and C are the ends. Side chains are listed from the residue outwards. Ends that are not written are not given here. * marks the point of attachment. C20 diacid = O=C(O)CCCCCCCCCCCCCCCCCCC(=O)*; γGlu = O=C(O)[C@H](CCC(=O)[*:2])N[*:1]; AEEA = NCCOCCOCC(=O)O
T1: human calcitonin receptor (human, UniProt P30988 25-474)
T1 construct: whole, on cells; Used as cell membranes prepared from the transfected BHK cells (Assay VII), not as intact cells; also called hCTR; hCT
T1 sequence (looked up): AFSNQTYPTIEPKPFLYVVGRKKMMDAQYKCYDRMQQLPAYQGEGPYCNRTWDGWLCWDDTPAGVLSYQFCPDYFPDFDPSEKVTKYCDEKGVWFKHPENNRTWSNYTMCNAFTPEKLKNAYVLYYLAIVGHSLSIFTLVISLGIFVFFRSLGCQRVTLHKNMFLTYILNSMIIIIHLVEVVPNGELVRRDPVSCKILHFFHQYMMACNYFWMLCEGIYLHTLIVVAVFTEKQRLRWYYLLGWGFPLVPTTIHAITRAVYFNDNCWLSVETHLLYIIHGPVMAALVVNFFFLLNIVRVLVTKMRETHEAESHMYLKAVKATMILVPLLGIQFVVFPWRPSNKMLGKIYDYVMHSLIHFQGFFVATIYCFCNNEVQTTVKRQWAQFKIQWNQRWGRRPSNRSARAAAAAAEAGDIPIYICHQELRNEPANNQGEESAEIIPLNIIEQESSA

B1: N^α1-[2-[2-[2-[[2-[2-[2-[[(4S)-4-carboxy-4-(19-carboxynonadecanoylamino)butanoyl]amino]ethoxy]ethoxy]acetyl]amino]ethoxy]ethoxy]acetyl]-[Arg17,Pro21,Pro27]-h-am … (peptide)
peptide: KCNTATCATQRLANFLRHSSPNFGAIPSSTNVGSNTY
modifications: C20 diacid-gGlu-2xOEG on the alpha amino group of the N-terminal Lys1; disulfide Cys2-Cys7; C-terminal amide
notes: also called compound 24
B2: N^ε1-[2-[2-[2-[[(4S)-4-carboxy-4-(19-carboxynonadecanoylamino)butanoyl]amino]ethoxy]ethoxy]acetyl]-[Arg17,Pro21,Pro27]-h-amylin (peptide)
peptide: K([AEEA-γGlu-C20 diacid])CNTATCATQRLANFLRHSSPNFGAIPSSTNVGSNTY-NH2
modifications: disulfide 2-7; N-terminus assumed
SMILES: CC[C@H](C)[C@H](NC(=O)[C@H](C)NC(=O)CNC(=O)[C@H](Cc1ccccc1)NC(=O)[C@H](CC(N)=O)NC(=O)[C@@H]1CCCN1C(=O)[C@H](CO)NC(=O)[C@H](CO)NC(=O)[C@H](Cc1c[nH]cn1)NC(=O)[C@H](CCCNC(=N)N)NC(=O)[C@H](CC(C)C)NC(=O)[C@H](Cc1ccccc1)NC(=O)[C@H](CC(N)=O)NC(=O)[C@H](C)NC(=O)[C@H](CC(C)C)NC(=O)[C@H](CCCNC(=N)N)NC(=O)[C@H](CCC(N)=O)NC(=O)[C@@H](NC(=O)[C@H](C)NC(=O)[C@@H]1CSSC[C@H](NC(=O)[C@@H](N)CCCCNC(=O)COCCOCCNC(=O)CC[C@H](NC(=O)CCCCCCCCCCCCCCCCCCC(=O)O)C(=O)O)C(=O)N[C@@H](CC(N)=O)C(=O)N[C@@H]([C@@H](C)O)C(=O)N[C@@H](C)C(=O)N[C@@H]([C@@H](C)O)C(=O)N1)[C@@H](C)O)C(=O)N1CCC[C@H]1C(=O)N[C@@H](CO)C(=O)N[C@@H](CO)C(=O)N[C@H](C(=O)N[C@@H](CC(N)=O)C(=O)N[C@H](C(=O)NCC(=O)N[C@@H](CO)C(=O)N[C@@H](CC(N)=O)C(=O)N[C@H](C(=O)N[C@@H](Cc1ccc(O)cc1)C(N)=O)[C@@H](C)O)C(C)C)[C@@H](C)O
notes: also called compound 41
B3: N^ε1-[2-[2-[2-(19-carboxynonadecanoylamino)ethoxy]ethoxy]acetyl]-[Arg17,Pro21,Pro27]-h-amylin (peptide)
peptide: K([AEEA-C20 diacid])CNTATCATQRLANFLRHSSPNFGAIPSSTNVGSNTY-NH2
modifications: disulfide 2-7; N-terminus assumed
SMILES: CC[C@H](C)[C@H](NC(=O)[C@H](C)NC(=O)CNC(=O)[C@H](Cc1ccccc1)NC(=O)[C@H](CC(N)=O)NC(=O)[C@@H]1CCCN1C(=O)[C@H](CO)NC(=O)[C@H](CO)NC(=O)[C@H](Cc1c[nH]cn1)NC(=O)[C@H](CCCNC(=N)N)NC(=O)[C@H](CC(C)C)NC(=O)[C@H](Cc1ccccc1)NC(=O)[C@H](CC(N)=O)NC(=O)[C@H](C)NC(=O)[C@H](CC(C)C)NC(=O)[C@H](CCCNC(=N)N)NC(=O)[C@H](CCC(N)=O)NC(=O)[C@@H](NC(=O)[C@H](C)NC(=O)[C@@H]1CSSC[C@H](NC(=O)[C@@H](N)CCCCNC(=O)COCCOCCNC(=O)CCCCCCCCCCCCCCCCCCC(=O)O)C(=O)N[C@@H](CC(N)=O)C(=O)N[C@@H]([C@@H](C)O)C(=O)N[C@@H](C)C(=O)N[C@@H]([C@@H](C)O)C(=O)N1)[C@@H](C)O)C(=O)N1CCC[C@H]1C(=O)N[C@@H](CO)C(=O)N[C@@H](CO)C(=O)N[C@H](C(=O)N[C@@H](CC(N)=O)C(=O)N[C@H](C(=O)NCC(=O)N[C@@H](CO)C(=O)N[C@@H](CC(N)=O)C(=O)N[C@H](C(=O)N[C@@H](Cc1ccc(O)cc1)C(N)=O)[C@@H](C)O)C(C)C)[C@@H](C)O
notes: also called compound 43
B4: N^ε-[(4S)-4-carboxy-4-(19-carboxynonadecanoylamino)butanoyl]Lys[Arg1,Arg17,Pro21,Pro27,His35]-h-amylin (peptide)
peptide: K([γGlu-C20 diacid])RCNTATCATQRLANFLRHSSPNFGAIPSSTNVGSHTY-NH2
modifications: disulfide 3-8; N-terminus assumed
SMILES: CC[C@H](C)[C@H](NC(=O)[C@H](C)NC(=O)CNC(=O)[C@H](Cc1ccccc1)NC(=O)[C@H](CC(N)=O)NC(=O)[C@@H]1CCCN1C(=O)[C@H](CO)NC(=O)[C@H](CO)NC(=O)[C@H](Cc1c[nH]cn1)NC(=O)[C@H](CCCNC(=N)N)NC(=O)[C@H](CC(C)C)NC(=O)[C@H](Cc1ccccc1)NC(=O)[C@H](CC(N)=O)NC(=O)[C@H](C)NC(=O)[C@H](CC(C)C)NC(=O)[C@H](CCCNC(=N)N)NC(=O)[C@H](CCC(N)=O)NC(=O)[C@@H](NC(=O)[C@H](C)NC(=O)[C@@H]1CSSC[C@H](NC(=O)[C@H](CCCNC(=N)N)NC(=O)[C@@H](N)CCCCNC(=O)CC[C@H](NC(=O)CCCCCCCCCCCCCCCCCCC(=O)O)C(=O)O)C(=O)N[C@@H](CC(N)=O)C(=O)N[C@@H]([C@@H](C)O)C(=O)N[C@@H](C)C(=O)N[C@@H]([C@@H](C)O)C(=O)N1)[C@@H](C)O)C(=O)N1CCC[C@H]1C(=O)N[C@@H](CO)C(=O)N[C@@H](CO)C(=O)N[C@H](C(=O)N[C@@H](CC(N)=O)C(=O)N[C@H](C(=O)NCC(=O)N[C@@H](CO)C(=O)N[C@@H](Cc1c[nH]cn1)C(=O)N[C@H](C(=O)N[C@@H](Cc1ccc(O)cc1)C(N)=O)[C@@H](C)O)C(C)C)[C@@H](C)O
notes: also called compound 44
B5: N^-1-[(4S)-4-carboxy-4-(19-carboxynonadecanoylamino)butanoyl]-Gly[Arg1,Arg17,Pro21,Pro27,His35]-h-amylin (peptide)
peptide: {C20 diacid-γGlu}-GRCNTATCATQRLANFLRHSSPNFGAIPSSTNVGSHTY-NH2
modifications: disulfide 3-8
SMILES: CC[C@H](C)[C@H](NC(=O)[C@H](C)NC(=O)CNC(=O)[C@H](Cc1ccccc1)NC(=O)[C@H](CC(N)=O)NC(=O)[C@@H]1CCCN1C(=O)[C@H](CO)NC(=O)[C@H](CO)NC(=O)[C@H](Cc1c[nH]cn1)NC(=O)[C@H](CCCNC(=N)N)NC(=O)[C@H](CC(C)C)NC(=O)[C@H](Cc1ccccc1)NC(=O)[C@H](CC(N)=O)NC(=O)[C@H](C)NC(=O)[C@H](CC(C)C)NC(=O)[C@H](CCCNC(=N)N)NC(=O)[C@H](CCC(N)=O)NC(=O)[C@@H](NC(=O)[C@H](C)NC(=O)[C@@H]1CSSC[C@H](NC(=O)[C@H](CCCNC(=N)N)NC(=O)CNC(=O)CC[C@H](NC(=O)CCCCCCCCCCCCCCCCCCC(=O)O)C(=O)O)C(=O)N[C@@H](CC(N)=O)C(=O)N[C@@H]([C@@H](C)O)C(=O)N[C@@H](C)C(=O)N[C@@H]([C@@H](C)O)C(=O)N1)[C@@H](C)O)C(=O)N1CCC[C@H]1C(=O)N[C@@H](CO)C(=O)N[C@@H](CO)C(=O)N[C@H](C(=O)N[C@@H](CC(N)=O)C(=O)N[C@H](C(=O)NCC(=O)N[C@@H](CO)C(=O)N[C@@H](Cc1c[nH]cn1)C(=O)N[C@H](C(=O)N[C@@H](Cc1ccc(O)cc1)C(N)=O)[C@@H](C)O)C(C)C)[C@@H](C)O
notes: also called compound 47
B6: N^-1-[(4S)-4-carboxy-4-(19-carboxynonadecanoylamino)butanoyl]-Gly[Arg1,Arg17,Pro21,Pro27]-h-amylin (peptide)
peptide: {C20 diacid-γGlu}-GRCNTATCATQRLANFLRHSSPNFGAIPSSTNVGSNTY-NH2
modifications: disulfide 3-8
SMILES: CC[C@H](C)[C@H](NC(=O)[C@H](C)NC(=O)CNC(=O)[C@H](Cc1ccccc1)NC(=O)[C@H](CC(N)=O)NC(=O)[C@@H]1CCCN1C(=O)[C@H](CO)NC(=O)[C@H](CO)NC(=O)[C@H](Cc1c[nH]cn1)NC(=O)[C@H](CCCNC(=N)N)NC(=O)[C@H](CC(C)C)NC(=O)[C@H](Cc1ccccc1)NC(=O)[C@H](CC(N)=O)NC(=O)[C@H](C)NC(=O)[C@H](CC(C)C)NC(=O)[C@H](CCCNC(=N)N)NC(=O)[C@H](CCC(N)=O)NC(=O)[C@@H](NC(=O)[C@H](C)NC(=O)[C@@H]1CSSC[C@H](NC(=O)[C@H](CCCNC(=N)N)NC(=O)CNC(=O)CC[C@H](NC(=O)CCCCCCCCCCCCCCCCCCC(=O)O)C(=O)O)C(=O)N[C@@H](CC(N)=O)C(=O)N[C@@H]([C@@H](C)O)C(=O)N[C@@H](C)C(=O)N[C@@H]([C@@H](C)O)C(=O)N1)[C@@H](C)O)C(=O)N1CCC[C@H]1C(=O)N[C@@H](CO)C(=O)N[C@@H](CO)C(=O)N[C@H](C(=O)N[C@@H](CC(N)=O)C(=O)N[C@H](C(=O)NCC(=O)N[C@@H](CO)C(=O)N[C@@H](CC(N)=O)C(=O)N[C@H](C(=O)N[C@@H](Cc1ccc(O)cc1)C(N)=O)[C@@H](C)O)C(C)C)[C@@H](C)O
notes: also called compound 46
B7: N^ε-[2-[2-[2-[[(4S)-4-carboxy-4-(19-carboxynonadecanoylamino)butanoyl]amino]ethoxy]ethoxy]acetyl]Lys[Arg1,Arg17,Pro21,Pro27,His35]-h-amylin (peptide)
peptide: K([AEEA-γGlu-C20 diacid])RCNTATCATQRLANFLRHSSPNFGAIPSSTNVGSHTY-NH2
modifications: disulfide 3-8; N-terminus assumed
SMILES: CC[C@H](C)[C@H](NC(=O)[C@H](C)NC(=O)CNC(=O)[C@H](Cc1ccccc1)NC(=O)[C@H](CC(N)=O)NC(=O)[C@@H]1CCCN1C(=O)[C@H](CO)NC(=O)[C@H](CO)NC(=O)[C@H](Cc1c[nH]cn1)NC(=O)[C@H](CCCNC(=N)N)NC(=O)[C@H](CC(C)C)NC(=O)[C@H](Cc1ccccc1)NC(=O)[C@H](CC(N)=O)NC(=O)[C@H](C)NC(=O)[C@H](CC(C)C)NC(=O)[C@H](CCCNC(=N)N)NC(=O)[C@H](CCC(N)=O)NC(=O)[C@@H](NC(=O)[C@H](C)NC(=O)[C@@H]1CSSC[C@H](NC(=O)[C@H](CCCNC(=N)N)NC(=O)[C@@H](N)CCCCNC(=O)COCCOCCNC(=O)CC[C@H](NC(=O)CCCCCCCCCCCCCCCCCCC(=O)O)C(=O)O)C(=O)N[C@@H](CC(N)=O)C(=O)N[C@@H]([C@@H](C)O)C(=O)N[C@@H](C)C(=O)N[C@@H]([C@@H](C)O)C(=O)N1)[C@@H](C)O)C(=O)N1CCC[C@H]1C(=O)N[C@@H](CO)C(=O)N[C@@H](CO)C(=O)N[C@H](C(=O)N[C@@H](CC(N)=O)C(=O)N[C@H](C(=O)NCC(=O)N[C@@H](CO)C(=O)N[C@@H](Cc1c[nH]cn1)C(=O)N[C@H](C(=O)N[C@@H](Cc1ccc(O)cc1)C(N)=O)[C@@H](C)O)C(C)C)[C@@H](C)O
notes: also called compound 45

Target: T1, human calcitonin receptor
Assay: SPA competition against 125I-calcitonin, membranes with human calcitonin receptor (Assay VII)
Procedure, shortened: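 BHK hCTR membranes 35 ng/μL + SPA beads 0.05 mg/well; buffer 50 mM Hepes pH 7.4, 1 mM CaCl2, 5 mM MgCl₂, 0.1% OA, 0.02% Tween20. 120 min, 25° C., shaking. Scintillation count; IC50 by one-site binding competition.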

Binder | IC50
B1 | 102 nM
B2 | 21.3 nM
B3 | 2.64 nM
B4 | 4.87 nM
B5 | 15.5 nM
B6 | 9.53 nM
B7 | 14.8 nM
